Experimental data taken from the supplement of paper PMC9112550, “Optimization of the antimicrobial peptide Bac7 by deep mutational scanning” (BMC Biology, 2022).

Tested on: Escherichia coli TOP10
Test: shrunken log2 fold change of peptide-encoding DNA abundance (4.5 h post-induction vs induction); higher = less antimicrobial activity (less host growth inhibition)
Details: time post-induction: 4.5 h; library: site-saturation at positions 5, 18, 19, 20
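Further: peptides expressed intracellularly from a pBAD plasmid library in pooled LB shake-flask culture, induced with 0.3% L-arabinose, DNA abundance read by NGS, three biological replicates, DESeq2 with apeglm shrinkage.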

| Sequence | shrunken log2 fold change |
| --- | --- |
| RRIRHRPPRLPRPRPRPTISPRP | -0.495 |
| RRIRGRPPRLPRPRPRPFINPRP | -0.165 |
| RRIRPRPPRLPRPRPRPAQYPRP | 0.0469 |
| RRIRNRPPRLPRPRPRPYYSPRP | -0.541 |
| RRIRIRPPRLPRPRPRPQWYPRP | -0.485 |
| RRIRGRPPRLPRPRPRPFEMPRP | 0.396 |
| RRIRMRPPRLPRPRPRPHSKPRP | -0.0418 |
| RRIRSRPPRLPRPRPRPFEQPRP | -0.0212 |
| RRIRCRPPRLPRPRPRPCGCPRP | -0.0301 |
| RRIRLRPPRLPRPRPRPGVDPRP | 0.411 |
| RRIRARPPRLPRPRPRPFWDPRP | 0.00119 |
| RRIRCRPPRLPRPRPRPWCFPRP | -0.712 |
| RRIRSRPPRLPRPRPRPDMCPRP | 0.0552 |
| RRIRIRPPRLPRPRPRPQGRPRP | -0.25 |
| RRIRIRPPRLPRPRPRPEVGPRP | 0.0138 |
| RRIRVRPPRLPRPRPRPCIMPRP | -0.514 |
| RRIRCRPPRLPRPRPRPYFEPRP | -0.572 |
| RRIRERPPRLPRPRPRPGDDPRP | -0.152 |
| RRIRNRPPRLPRPRPRPYCLPRP | -0.228 |
| RRIRVRPPRLPRPRPRPYGPPRP | -0.041 |
| RRIRHRPPRLPRPRPRPTYFPRP | -0.309 |
| RRIRRRPPRLPRPRPRPEKLPRP | 0.128 |
| RRIRIRPPRLPRPRPRPLQPPRP | 0.327 |
| RRIRWRPPRLPRPRPRPWMFPRP | 0.00732 |
| RRIRGRPPRLPRPRPRPGPFPRP | 0.218 |

| Sequence | shrunken log2 fold change |
| --- | --- |
| RRIRTRPPRLPRPRPRPWSNPRP | 0.0394 |
| RRIRARPPRLPRPRPRPKGVPRP | 0.15 |
| RRIRTRPPRLPRPRPRPKTQPRP | 0.19 |
| RRIRLRPPRLPRPRPRPAPHPRP | 0.514 |
| RRIRSRPPRLPRPRPRPTDDPRP | -0.0687 |
| RRIRGRPPRLPRPRPRPKRMPRP | 0.675 |
| RRIRWRPPRLPRPRPRPPVIPRP | -0.189 |
| RRIRFRPPRLPRPRPRPQTEPRP | -0.00927 |
| RRIRRRPPRLPRPRPRPWGRPRP | 0.101 |
| RRIRWRPPRLPRPRPRPYSQPRP | -0.425 |
| RRIRTRPPRLPRPRPRPQYLPRP | -0.436 |
| RRIRMRPPRLPRPRPRPAACPRP | 0.763 |
| RRIRSRPPRLPRPRPRPHNSPRP | -0.357 |
| RRIRERPPRLPRPRPRPQCYPRP | -0.186 |
| RRIRERPPRLPRPRPRPTAEPRP | 0.265 |
| RRIRQRPPRLPRPRPRPHKWPRP | -0.2 |
| RRIRLRPPRLPRPRPRPKSIPRP | -0.189 |
| RRIRRRPPRLPRPRPRPWFYPRP | -0.00712 |
| RRIRFRPPRLPRPRPRPLYAPRP | -0.119 |
| RRIRTRPPRLPRPRPRPKVDPRP | 0.195 |
| RRIRNRPPRLPRPRPRPMVLPRP | 0.0232 |
| RRIRPRPPRLPRPRPRPSYLPRP | -0.562 |
| RRIRHRPPRLPRPRPRPPTIPRP | 0.215 |
| RRIRDRPPRLPRPRPRPCVVPRP | -0.00921 |
| RRIRARPPRLPRPRPRPDRAPRP | 0.642 |
